Values of other authors in PMC2888655.
Where two headings read alike, the source gives them in different places.

Experiments:
[1] = biological target: IGF2 (Homo sapiens) (UniProt P01344); experiment: SPR
[2] = biological target: IGF1 (Homo sapiens) (UniProt P05019); experiment: SPR
[3] = biological target: IGF2 (Homo sapiens) (UniProt P01344)
[4] = biological target: IGF1 (Homo sapiens) (UniProt P05019)

IGF1R (from UniProt P08069), sequence (P08069 31-736): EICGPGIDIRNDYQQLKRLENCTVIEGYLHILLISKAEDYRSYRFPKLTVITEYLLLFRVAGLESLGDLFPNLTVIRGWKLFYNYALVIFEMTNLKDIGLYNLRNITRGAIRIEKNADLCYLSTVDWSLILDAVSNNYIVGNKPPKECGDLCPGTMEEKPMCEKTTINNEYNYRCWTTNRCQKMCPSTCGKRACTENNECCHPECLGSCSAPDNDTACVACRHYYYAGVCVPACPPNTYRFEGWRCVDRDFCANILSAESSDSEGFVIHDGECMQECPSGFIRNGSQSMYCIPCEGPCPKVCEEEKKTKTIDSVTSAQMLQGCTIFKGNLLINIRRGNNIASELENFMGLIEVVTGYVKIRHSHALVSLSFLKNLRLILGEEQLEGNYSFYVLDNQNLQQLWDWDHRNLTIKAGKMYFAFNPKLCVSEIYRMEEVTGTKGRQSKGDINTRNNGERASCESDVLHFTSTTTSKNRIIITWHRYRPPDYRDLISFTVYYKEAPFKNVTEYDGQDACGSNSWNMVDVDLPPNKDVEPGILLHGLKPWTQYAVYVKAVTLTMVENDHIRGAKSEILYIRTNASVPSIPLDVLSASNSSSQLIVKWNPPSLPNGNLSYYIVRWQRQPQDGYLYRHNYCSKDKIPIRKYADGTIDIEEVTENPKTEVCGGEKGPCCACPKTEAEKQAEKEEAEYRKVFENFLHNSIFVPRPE
IGF1R (from UniProt P08069), sequence (P08069 741-935): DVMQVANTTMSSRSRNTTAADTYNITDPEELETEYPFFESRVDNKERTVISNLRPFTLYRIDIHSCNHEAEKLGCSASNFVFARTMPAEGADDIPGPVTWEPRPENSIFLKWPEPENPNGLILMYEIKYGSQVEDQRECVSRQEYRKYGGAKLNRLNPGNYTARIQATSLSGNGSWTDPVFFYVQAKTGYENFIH
IGF1 (Homo sapiens), sequence (P05019 49-118): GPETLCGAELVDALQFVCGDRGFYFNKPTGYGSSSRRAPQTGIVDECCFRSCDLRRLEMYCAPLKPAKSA
IGF2 (Homo sapiens), sequence (P01344 25-91): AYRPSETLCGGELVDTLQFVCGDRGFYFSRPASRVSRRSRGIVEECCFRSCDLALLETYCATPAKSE
IGF1R (from UniProt Q05688), sequence (Q05688 14-208): as the sequence (P08069 741-935) above, with D1E, V5I, A19V, A20L, G189T counted along it

Row | Substance | Kd [1] [nM] | Kd [2] [nM] | Kd [3] [nM] | Kd [4] [nM]
1 | IGF1R (from UniProt P08069) | 17.8 | 4.45 |  | 
2 | IGF1R (from UniProt Q05688) |  |  | 1 | 1
